Source: publication PMC7337067, “Cryo-electron microscopic and X-ray crystallographic analysis of the light-driven proton pump proteorhodopsin reveals a pentameric assembly” (Journal of Structural Biology: X, 2020)

Biological target: the molecule itself
Assay: crystal structure; 3D crystals of purified GPR, 50 mM MES pH 6, 25 mM MnCl2, 30% PEG 400; anisotropic diffraction to 4.44 Å; molecular replacement with pentameric HOT75BPR (PDB 4KLY); no atomic model built

B1: green-light absorbing proteorhodopsin (GPR), untagged (natural protein, γ-proteobacterium)
chain: MAGGGDLDASDYTGVSFWLVTAALLASTVFFFVERDRVSAKWKTSLTVSGLVTGIAFWHYMYMRGVWIETGDSPTVFRYIDWLLTVPLLICEFYLILAAATNVAGSLFKKLLVGSLVMLVFGYMGEAGIMAAWPAFIIGCLAWVYMIYELWAGEGKSACNTASPAVQSAYNTMMYIIIFGWAIYPVGYFTGYLMGDGGSALNLNLIYNLADFVNKILFGLIIWNVAVKESSNA
modifications: all-trans retinal covalently linked via a Schiff base to a conserved lysine
notes: N-terminal methionine added to the construct; theoretical MW of the monomer 25.5 kDa; Stop codon placed before the HRV 3C site and decahistidine-tag of pZUDF21, so no tag on the protein; Pentamer by crystallography and cryo-EM; also called untagged GPR; tag-free GPR; source: E. coli BL21(DE3) Rosetta2 (pZUDF21stop); purified from Cymal-5 solubilized membranes (Q Sepharose IEC, Superdex 200 SEC); …
stoichiometry N: 5
